Results taken from patent US20200308270A1 (Zymeworks, published 2020).

Each binder was assayed against T1, recombinant human HER3 (human, UniProt P21860 20-643) (assay: SPR (Biacore T200), HER3 captured via anti-His, Fab analyte;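 note: single cycle kinetics with five Fab concentrations, referenced against a blank flow cell and mock-buffer injections, sensorgrams fit to a 1:1 binding model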).
T1 construct: Bought reagent
Protocol: HER3 affinity determination in Fabs was carried out as follows. The screening of Fabs (preparative SEC purified) for binding to HER3 antigen occurred in two steps: an indirect capture of HER3 onto the anti-His antibody, followed by the injection of five concentrations of Fabs, for kinetic analysis using single cycle kinetics. […] HER3 was injected at 4-8 μg/mL over the active flow cell for 60 s at a flow rate of 10 μL/min. […] HER3 was not captured on the reference (blank) flow cell. […] The captured HER3 surfaces were regenerated by 10 mM glycine pH 1.5 for 120 s at 30 μL/min to prepare the surfaces for the next injection cycle. At least two mock-buffer injections were performed for each analyte injection and used for referencing. The resulting single cycle kinetics sensorgrams were analyzed using Biacore T200 BiaEvaluation software version 3.0 and fit to the 1:1 binding model.

| Kd [nM] | Binder |
| --- | --- |
| 90.5 | H3 designed Vlambda-Ckappa chimeric Fab, design 18 (E83F_D85T_T105E) (Fab, name in Kabat numbering, V domains shown) VH: QVQLQESGGGLVKPGGSLRLSCAASGFTFSSYWMSWVRQAPGKGLEWVANINRDGSASYYVDSVKGRFTISRDDAKNSLYLQMNSLRAEDTAVYYCARDRGVGYFDLWGRGTLVTVSS VL: QSALTQPASVSGSPGQSITISCTGTSSDVGGYNFVSWYQQHPGKAPKLMIYDVSDRPSGVSDRFSGSKSGNTASLIISGLQADDFATYYCSSYGSSSTHVIFGGGTKVEVLR |
| 92.6 | H3 designed Vlambda-Ckappa chimeric Fab, design 14 (E83F) (Fab, name in Kabat numbering, V domains shown) VH: QVQLQESGGGLVKPGGSLRLSCAASGFTFSSYWMSWVRQAPGKGLEWVANINRDGSASYYVDSVKGRFTISRDDAKNSLYLQMNSLRAEDTAVYYCARDRGVGYFDLWGRGTLVTVSS VL: QSALTQPASVSGSPGQSITISCTGTSSDVGGYNFVSWYQQHPGKAPKLMIYDVSDRPSGVSDRFSGSKSGNTASLIISGLQADDFADYYCSSYGSSSTHVIFGGGTKVTVLR |
| 82.6 | H3 designed Vlambda-Ckappa chimeric Fab, design 21 (E83F_D85V_T105E_V106I) (Fab, name in Kabat numbering, V domains shown) VH: QVQLQESGGGLVKPGGSLRLSCAASGFTFSSYWMSWVRQAPGKGLEWVANINRDGSASYYVDSVKGRFTISRDDAKNSLYLQMNSLRAEDTAVYYCARDRGVGYFDLWGRGTLVTVSS VL: QSALTQPASVSGSPGQSITISCTGTSSDVGGYNFVSWYQQHPGKAPKLMIYDVSDRPSGVSDRFSGSKSGNTASLIISGLQADDFAVYYCSSYGSSSTHVIFGGGTKVEILR |
| 83 | H3 designed Vlambda-Ckappa chimeric Fab, design 19 (E83F_D85V_T105E) (Fab, name in Kabat numbering, V domains shown) VH: QVQLQESGGGLVKPGGSLRLSCAASGFTFSSYWMSWVRQAPGKGLEWVANINRDGSASYYVDSVKGRFTISRDDAKNSLYLQMNSLRAEDTAVYYCARDRGVGYFDLWGRGTLVTVSS VL: QSALTQPASVSGSPGQSITISCTGTSSDVGGYNFVSWYQQHPGKAPKLMIYDVSDRPSGVSDRFSGSKSGNTASLIISGLQADDFAVYYCSSYGSSSTHVIFGGGTKVEVLR |
| 89.2 | H3 designed Vlambda-Ckappa chimeric Fab, design 28 (E83V_D85V_T105E) (Fab, name in Kabat numbering, V domains shown) VH: QVQLQESGGGLVKPGGSLRLSCAASGFTFSSYWMSWVRQAPGKGLEWVANINRDGSASYYVDSVKGRFTISRDDAKNSLYLQMNSLRAEDTAVYYCARDRGVGYFDLWGRGTLVTVSS VL: QSALTQPASVSGSPGQSITISCTGTSSDVGGYNFVSWYQQHPGKAPKLMIYDVSDRPSGVSDRFSGSKSGNTASLIISGLQADDVAVYYCSSYGSSSTHVIFGGGTKVEVLR |
| 80.6 | H3 designed Vlambda-Ckappa chimeric Fab, design 25 (E83V_V106I) (Fab, name in Kabat numbering, V domains shown) VH: QVQLQESGGGLVKPGGSLRLSCAASGFTFSSYWMSWVRQAPGKGLEWVANINRDGSASYYVDSVKGRFTISRDDAKNSLYLQMNSLRAEDTAVYYCARDRGVGYFDLWGRGTLVTVSS VL: QSALTQPASVSGSPGQSITISCTGTSSDVGGYNFVSWYQQHPGKAPKLMIYDVSDRPSGVSDRFSGSKSGNTASLIISGLQADDVADYYCSSYGSSSTHVIFGGGTKVTILR |
| 75.4 | H3 designed Vlambda-Ckappa chimeric Fab, design 34 (E83I_D85T_T105E_V106I) (Fab, name in Kabat numbering, V domains shown) VH: QVQLQESGGGLVKPGGSLRLSCAASGFTFSSYWMSWVRQAPGKGLEWVANINRDGSASYYVDSVKGRFTISRDDAKNSLYLQMNSLRAEDTAVYYCARDRGVGYFDLWGRGTLVTVSS VL: QSALTQPASVSGSPGQSITISCTGTSSDVGGYNFVSWYQQHPGKAPKLMIYDVSDRPSGVSDRFSGSKSGNTASLIISGLQADDIATYYCSSYGSSSTHVIFGGGTKVEILR |
| 83.1 | H3 designed Vlambda-Ckappa chimeric Fab, design 17 (E83F_D85T) (Fab, name in Kabat numbering, V domains shown) VH: QVQLQESGGGLVKPGGSLRLSCAASGFTFSSYWMSWVRQAPGKGLEWVANINRDGSASYYVDSVKGRFTISRDDAKNSLYLQMNSLRAEDTAVYYCARDRGVGYFDLWGRGTLVTVSS VL: QSALTQPASVSGSPGQSITISCTGTSSDVGGYNFVSWYQQHPGKAPKLMIYDVSDRPSGVSDRFSGSKSGNTASLIISGLQADDFATYYCSSYGSSSTHVIFGGGTKVTVLR |
| 80.5 | H3 designed Vlambda-Ckappa chimeric Fab, design 22 (E83F_D85T_T105E_V106I_L106AK) (Fab, V domains shown) VH: QVQLQESGGGLVKPGGSLRLSCAASGFTFSSYWMSWVRQAPGKGLEWVANINRDGSASYYVDSVKGRFTISRDDAKNSLYLQMNSLRAEDTAVYYCARDRGVGYFDLWGRGTLVTVSS VL: QSALTQPASVSGSPGQSITISCTGTSSDVGGYNFVSWYQQHPGKAPKLMIYDVSDRPSGVSDRFSGSKSGNTASLIISGLQADDFATYYCSSYGSSSTHVIFGGGTKVEIKR |
| 85.8 | H3 designed Vlambda-Ckappa chimeric Fab, design 20 (E83F_D85T_T105E_V106I) (Fab, name in Kabat numbering, V domains shown) VH: QVQLQESGGGLVKPGGSLRLSCAASGFTFSSYWMSWVRQAPGKGLEWVANINRDGSASYYVDSVKGRFTISRDDAKNSLYLQMNSLRAEDTAVYYCARDRGVGYFDLWGRGTLVTVSS VL: QSALTQPASVSGSPGQSITISCTGTSSDVGGYNFVSWYQQHPGKAPKLMIYDVSDRPSGVSDRFSGSKSGNTASLIISGLQADDFATYYCSSYGSSSTHVIFGGGTKVEILR |
| 84.1 | H3 designed Vlambda-Ckappa chimeric Fab, design 27 (E83V_D85T_T105E) (Fab, name in Kabat numbering, V domains shown) VH: QVQLQESGGGLVKPGGSLRLSCAASGFTFSSYWMSWVRQAPGKGLEWVANINRDGSASYYVDSVKGRFTISRDDAKNSLYLQMNSLRAEDTAVYYCARDRGVGYFDLWGRGTLVTVSS VL: QSALTQPASVSGSPGQSITISCTGTSSDVGGYNFVSWYQQHPGKAPKLMIYDVSDRPSGVSDRFSGSKSGNTASLIISGLQADDVATYYCSSYGSSSTHVIFGGGTKVEVLR |
| 77 | H3 designed Vlambda-Ckappa chimeric Fab, design 29 (E83V_D85T_T105E_V106I) (Fab, name in Kabat numbering, V domains shown) VH: QVQLQESGGGLVKPGGSLRLSCAASGFTFSSYWMSWVRQAPGKGLEWVANINRDGSASYYVDSVKGRFTISRDDAKNSLYLQMNSLRAEDTAVYYCARDRGVGYFDLWGRGTLVTVSS VL: QSALTQPASVSGSPGQSITISCTGTSSDVGGYNFVSWYQQHPGKAPKLMIYDVSDRPSGVSDRFSGSKSGNTASLIISGLQADDVATYYCSSYGSSSTHVIFGGGTKVEILR |
| 102 | H3 designed Vlambda-Ckappa chimeric Fab, design 24 (E83V_T105E) (Fab, name in Kabat numbering, V domains shown) VH: QVQLQESGGGLVKPGGSLRLSCAASGFTFSSYWMSWVRQAPGKGLEWVANINRDGSASYYVDSVKGRFTISRDDAKNSLYLQMNSLRAEDTAVYYCARDRGVGYFDLWGRGTLVTVSS VL: QSALTQPASVSGSPGQSITISCTGTSSDVGGYNFVSWYQQHPGKAPKLMIYDVSDRPSGVSDRFSGSKSGNTASLIISGLQADDVADYYCSSYGSSSTHVIFGGGTKVEVLR |
| 95.1 | H3 designed Vlambda-Ckappa chimeric Fab, design 30 (E83I) (Fab, name in Kabat numbering, V domains shown) VH: QVQLQESGGGLVKPGGSLRLSCAASGFTFSSYWMSWVRQAPGKGLEWVANINRDGSASYYVDSVKGRFTISRDDAKNSLYLQMNSLRAEDTAVYYCARDRGVGYFDLWGRGTLVTVSS VL: QSALTQPASVSGSPGQSITISCTGTSSDVGGYNFVSWYQQHPGKAPKLMIYDVSDRPSGVSDRFSGSKSGNTASLIISGLQADDIADYYCSSYGSSSTHVIFGGGTKVTVLR |
| 88.5 | H3 designed Vlambda-Ckappa chimeric Fab, design 16 (E83F_V106I) (Fab, name in Kabat numbering, V domains shown) VH: QVQLQESGGGLVKPGGSLRLSCAASGFTFSSYWMSWVRQAPGKGLEWVANINRDGSASYYVDSVKGRFTISRDDAKNSLYLQMNSLRAEDTAVYYCARDRGVGYFDLWGRGTLVTVSS VL: QSALTQPASVSGSPGQSITISCTGTSSDVGGYNFVSWYQQHPGKAPKLMIYDVSDRPSGVSDRFSGSKSGNTASLIISGLQADDFADYYCSSYGSSSTHVIFGGGTKVTILR |
| 82.7 | H3 designed Vlambda-Ckappa chimeric Fab, design 31 (E83I_T105E) (Fab, name in Kabat numbering, V domains shown) VH: QVQLQESGGGLVKPGGSLRLSCAASGFTFSSYWMSWVRQAPGKGLEWVANINRDGSASYYVDSVKGRFTISRDDAKNSLYLQMNSLRAEDTAVYYCARDRGVGYFDLWGRGTLVTVSS VL: QSALTQPASVSGSPGQSITISCTGTSSDVGGYNFVSWYQQHPGKAPKLMIYDVSDRPSGVSDRFSGSKSGNTASLIISGLQADDIADYYCSSYGSSSTHVIFGGGTKVEVLR |
| 90.8 | H3 designed Vlambda-Ckappa chimeric Fab, design 15 (E83F_T105E) (Fab, name in Kabat numbering, V domains shown) VH: QVQLQESGGGLVKPGGSLRLSCAASGFTFSSYWMSWVRQAPGKGLEWVANINRDGSASYYVDSVKGRFTISRDDAKNSLYLQMNSLRAEDTAVYYCARDRGVGYFDLWGRGTLVTVSS VL: QSALTQPASVSGSPGQSITISCTGTSSDVGGYNFVSWYQQHPGKAPKLMIYDVSDRPSGVSDRFSGSKSGNTASLIISGLQADDFADYYCSSYGSSSTHVIFGGGTKVEVLR |
| 83.8 | H3 designed Vlambda-Ckappa chimeric Fab, design 32 (E83I_D85T) (Fab, name in Kabat numbering, V domains shown) VH: QVQLQESGGGLVKPGGSLRLSCAASGFTFSSYWMSWVRQAPGKGLEWVANINRDGSASYYVDSVKGRFTISRDDAKNSLYLQMNSLRAEDTAVYYCARDRGVGYFDLWGRGTLVTVSS VL: QSALTQPASVSGSPGQSITISCTGTSSDVGGYNFVSWYQQHPGKAPKLMIYDVSDRPSGVSDRFSGSKSGNTASLIISGLQADDIATYYCSSYGSSSTHVIFGGGTKVTVLR |
| 89 | H3 designed Vlambda-Ckappa chimeric Fab, design 33 (E83I_D85T_T105E) (Fab, name in Kabat numbering, V domains shown) VH: QVQLQESGGGLVKPGGSLRLSCAASGFTFSSYWMSWVRQAPGKGLEWVANINRDGSASYYVDSVKGRFTISRDDAKNSLYLQMNSLRAEDTAVYYCARDRGVGYFDLWGRGTLVTVSS VL: QSALTQPASVSGSPGQSITISCTGTSSDVGGYNFVSWYQQHPGKAPKLMIYDVSDRPSGVSDRFSGSKSGNTASLIISGLQADDIATYYCSSYGSSSTHVIFGGGTKVEVLR |
| 92.7 | H3 Vlambda-Ckappa chimeric Fab (Fab, V domains shown, Parent chimeric Fab without stabilizing substitutions; also called chimera; VL-CK chimeric Fab) VH: QVQLQESGGGLVKPGGSLRLSCAASGFTFSSYWMSWVRQAPGKGLEWVANINRDGSASYYVDSVKGRFTISRDDAKNSLYLQMNSLRAEDTAVYYCARDRGVGYFDLWGRGTLVTVSS VL: QSALTQPASVSGSPGQSITISCTGTSSDVGGYNFVSWYQQHPGKAPKLMIYDVSDRPSGVSDRFSGSKSGNTASLIISGLQADDEADYYCSSYGSSSTHVIFGGGTKVTVLR |
| 82.1 | H3 designed Vlambda-Ckappa chimeric Fab, design 26 (E83V_D85T) (Fab, name in Kabat numbering, V domains shown) VH: QVQLQESGGGLVKPGGSLRLSCAASGFTFSSYWMSWVRQAPGKGLEWVANINRDGSASYYVDSVKGRFTISRDDAKNSLYLQMNSLRAEDTAVYYCARDRGVGYFDLWGRGTLVTVSS VL: QSALTQPASVSGSPGQSITISCTGTSSDVGGYNFVSWYQQHPGKAPKLMIYDVSDRPSGVSDRFSGSKSGNTASLIISGLQADDVATYYCSSYGSSSTHVIFGGGTKVTVLR |
| 95.7 | H3 designed Vlambda-Ckappa chimeric Fab, design 23 (E83V) (Fab, name in Kabat numbering, V domains shown) VH: QVQLQESGGGLVKPGGSLRLSCAASGFTFSSYWMSWVRQAPGKGLEWVANINRDGSASYYVDSVKGRFTISRDDAKNSLYLQMNSLRAEDTAVYYCARDRGVGYFDLWGRGTLVTVSS VL: QSALTQPASVSGSPGQSITISCTGTSSDVGGYNFVSWYQQHPGKAPKLMIYDVSDRPSGVSDRFSGSKSGNTASLIISGLQADDVADYYCSSYGSSSTHVIFGGGTKVTVLR |
